Molecular target: GST-ATG16L1N (human) (UniProt Q676U5)
Assay: pull-down; recombinant GST fusion (2–200 nM) on glutathione resin, incubated with 1.5 mg of a 1:3.5 mixture of wild-type and ATG7 KO PC-3 lysates; 20 mM Tris-HCl pH 8.0, 200 mM NaCl, 1 mM EDTA, 0.5% NP-40; immunoblot for GST and ATG5; fraction bound quantified

Sequence of GST-ATG16L1N (human) (Q676U5 1-69): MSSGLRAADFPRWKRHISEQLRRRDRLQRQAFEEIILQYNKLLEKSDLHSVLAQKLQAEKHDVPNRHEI
Sequence of native ATG12–ATG5 conjugate (Q9H1Y0 whole entry): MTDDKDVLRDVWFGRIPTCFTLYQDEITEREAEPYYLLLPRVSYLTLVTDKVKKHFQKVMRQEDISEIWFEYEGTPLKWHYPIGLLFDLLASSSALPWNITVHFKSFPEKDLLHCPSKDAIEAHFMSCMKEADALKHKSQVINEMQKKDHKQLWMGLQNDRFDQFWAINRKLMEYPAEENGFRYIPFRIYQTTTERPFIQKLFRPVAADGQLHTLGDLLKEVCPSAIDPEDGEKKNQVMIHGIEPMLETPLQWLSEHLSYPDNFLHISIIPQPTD
Sequence of native ATG12–ATG5 conjugate (O94817 whole entry): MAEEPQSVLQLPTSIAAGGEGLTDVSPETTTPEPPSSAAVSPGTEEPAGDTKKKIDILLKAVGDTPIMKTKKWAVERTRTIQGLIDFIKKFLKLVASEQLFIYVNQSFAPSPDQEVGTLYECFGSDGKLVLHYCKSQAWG

fold higher affinity than unconjugated ATG5: 10 fold
Substance: native ATG12–ATG5 conjugate (from UniProt Q9H1Y0 1-275; O94817 1-140) (complex)

— publication PMC6796855
